Experimental findings from paper PMC3874162 (Nucleic Acids Research, 2013) are described below.

For series [1], the target named is T1, Cdc13 (Saccharomyces cerevisiae, UniProt P32797 1-924).
T1 sequence: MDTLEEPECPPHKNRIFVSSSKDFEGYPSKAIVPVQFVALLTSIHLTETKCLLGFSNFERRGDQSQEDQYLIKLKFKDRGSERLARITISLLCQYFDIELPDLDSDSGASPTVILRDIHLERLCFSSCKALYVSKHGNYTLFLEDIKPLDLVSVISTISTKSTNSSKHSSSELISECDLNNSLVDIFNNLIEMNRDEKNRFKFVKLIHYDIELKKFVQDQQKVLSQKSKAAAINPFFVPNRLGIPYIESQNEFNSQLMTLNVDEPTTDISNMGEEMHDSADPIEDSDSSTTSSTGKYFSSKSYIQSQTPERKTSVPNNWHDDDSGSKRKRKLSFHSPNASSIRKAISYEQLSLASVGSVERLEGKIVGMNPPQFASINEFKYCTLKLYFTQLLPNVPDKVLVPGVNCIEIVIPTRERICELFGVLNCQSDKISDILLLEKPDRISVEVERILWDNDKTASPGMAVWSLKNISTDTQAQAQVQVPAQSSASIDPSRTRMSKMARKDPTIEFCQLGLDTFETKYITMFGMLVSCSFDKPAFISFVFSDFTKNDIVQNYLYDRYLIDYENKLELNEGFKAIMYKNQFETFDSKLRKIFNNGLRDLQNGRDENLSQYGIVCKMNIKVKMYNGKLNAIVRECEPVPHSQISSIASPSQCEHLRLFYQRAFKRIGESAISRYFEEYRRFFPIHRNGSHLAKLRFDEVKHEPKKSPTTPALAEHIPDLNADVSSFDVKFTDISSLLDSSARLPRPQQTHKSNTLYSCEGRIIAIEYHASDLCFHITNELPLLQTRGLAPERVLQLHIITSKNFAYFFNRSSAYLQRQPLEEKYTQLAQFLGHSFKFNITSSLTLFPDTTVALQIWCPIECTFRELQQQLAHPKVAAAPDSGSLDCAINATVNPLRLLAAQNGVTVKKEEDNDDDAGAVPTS
Briefly: EMSA. On the technique in general: A gel shift assay detects complexes by their altered migration in electrophoresis.

The target in series [2] is T1, Cdc13. Kind of series: filter binding.
Another series deals with T2, Cdc13-MOB-DBD (Saccharomyces cerevisiae, UniProt P32797 344-694).
T2 sequence: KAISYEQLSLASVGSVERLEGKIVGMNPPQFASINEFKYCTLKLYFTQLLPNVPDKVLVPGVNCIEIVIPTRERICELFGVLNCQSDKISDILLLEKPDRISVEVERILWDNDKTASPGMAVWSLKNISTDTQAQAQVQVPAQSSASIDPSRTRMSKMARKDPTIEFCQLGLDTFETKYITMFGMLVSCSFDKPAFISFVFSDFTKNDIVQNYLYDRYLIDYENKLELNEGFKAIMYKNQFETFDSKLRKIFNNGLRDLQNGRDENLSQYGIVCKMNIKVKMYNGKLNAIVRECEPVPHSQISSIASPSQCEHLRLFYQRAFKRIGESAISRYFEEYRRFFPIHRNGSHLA
Briefly: filter binding.

The target of the next series is T3, Cdc13-MOB (Saccharomyces cerevisiae, UniProt P32797 344-496).
T3 sequence: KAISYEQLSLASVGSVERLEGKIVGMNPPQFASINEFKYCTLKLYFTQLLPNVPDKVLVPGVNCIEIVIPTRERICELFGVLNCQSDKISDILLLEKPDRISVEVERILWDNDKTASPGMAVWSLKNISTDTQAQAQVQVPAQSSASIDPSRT

B1: Tel11 (ssDNA)
DNA: GTGTGGGTGTG
With B1, the Kd (usually the free concentration of one partner at which half of the binding sites on the other are occupied at equilibrium, for simple one-to-one binding) was determined as 0.0134 ± 0.0004 nM with Cdc13 [1], 0.41 ± 0.04 nM with Cdc13 [2] and 0.18 ± 0.03 nM in the series with Cdc13-MOB-DBD. Besides, the binding result with Cdc13-MOB was “no binding”.
